# From article PMC11475706, “ProEnd: a comprehensive database for identifying HbYX motif-containing proteins across the tree of life” (BMC Genomics, 2024)
# Target: T1, PAN-2 (MJ1494), HbYX ATPase from Methanocaldococcus jannaschii (Methanocaldococcus jannaschii, UniProt Q58889 1-371)
# T1 construct: PAN-2 (MJ1494), Methanocaldococcus jannaschii, UniProt Q58889; The hexameric state is only an AlphaFold Multimer prediction, not a measurement; also called putative 26S proteasome regulatory subunit; source: E. coli BL21 star DE3 (pET-28a(+), IPTG), held on Ni-NTA agarose from clarified lysate and washed; not shown: His6, N-terminal, kept
# T1 sequence (looked up): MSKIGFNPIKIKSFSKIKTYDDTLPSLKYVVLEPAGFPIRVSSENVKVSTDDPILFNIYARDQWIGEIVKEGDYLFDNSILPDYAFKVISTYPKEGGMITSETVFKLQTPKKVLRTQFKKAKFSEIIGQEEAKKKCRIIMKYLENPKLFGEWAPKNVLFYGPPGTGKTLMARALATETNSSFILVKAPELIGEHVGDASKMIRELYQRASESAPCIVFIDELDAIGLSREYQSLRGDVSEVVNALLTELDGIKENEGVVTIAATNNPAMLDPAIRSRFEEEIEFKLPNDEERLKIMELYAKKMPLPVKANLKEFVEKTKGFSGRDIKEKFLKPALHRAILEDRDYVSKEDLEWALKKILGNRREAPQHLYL
# Assay: pull-down; 6His-PAN-2 held on Ni-NTA agarose, washed with 50 mM Tris, 100 mM NaCl, 2 mM ATP, 10 mM MgCl2; tagless T20S incubated 20 min at room temperature; washed; eluted with 150 mM imidazole; T20S in the eluate quantified by suc-LLVY-amc hydrolysis; control: Ni-NTA columns with T20S alone
# Settings: both partners purified
binder,measurement,value
"T20S proteasome (20S from Thermoplasma acidophilum) (complex, proteasome subunit alpha, Thermoplasma acidophilum; proteasome subunit beta, Thermoplasma acidophilum; The C-terminal 6His tag on the beta subunits is preceded by a TEV site, so residues of that site probably stay at the beta C-terminus after the cut (surmise); also called archaeal proteasome T20S; archaeal 20S proteasome; source: recombinant, expressed from pET-28a(+), purified (Ni-NTA, TEV cut, …)) chain 1: MQQGQMAYDRAITVFSPDGRLFQVEYAREAVKKGSTALGMKFANGVLLISDKKVRSRLIEQNSIEKIQLIDDYVAAVTSGLVADARVLVDFARISAQQEKVTYGSLVNIENLVKRVADQMQQYTQYGGVRPYGVSLIFAGIDQIGPRLFDCDPAGTINEYKATAIGSGKDAVVSFLEREYKENLPEKEAVTLGIKALKSSLEEGEELKAPEIASITVGNKYRIYDQEEVKKFL chain 2: TTTVGITLKDAVIMATERRVTMENFIMHKNGKKLFQIDTYTGMTIAGLVGDAQVLVRYMKAELELYRLQRRVNMPIEAVATLLSNMLNQVKYMPYMVQLLVGGIDTAPHVFSIDAAGGSVEDIYASTGSGSPFVYGVLESQYSEKMTVDEGVDLVIRAISAAKQRDSASGGMIDVAVITRKDGYVQLPTDQIESRIRKLGLIL",fold T20S pulled down against control Ni-NTA columns,7 fold
